The record followed here is patent publication US20180346555A1 (Regeneron, published 2018).

Assay [1] concerns the target T1, Hazel (Cor A 1, MyBiosource, Cat# MBS5304600) (Hazel, UniProt Q08407 2-160, limits assumed).
T1 construct: Bought reagent
T1 sequence (looked up): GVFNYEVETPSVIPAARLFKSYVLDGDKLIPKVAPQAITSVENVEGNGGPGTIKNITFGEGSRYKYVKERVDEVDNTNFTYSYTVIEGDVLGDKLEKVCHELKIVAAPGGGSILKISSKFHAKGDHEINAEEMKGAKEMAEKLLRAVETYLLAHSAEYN
The assay is described as follows: SPR Biacore 4000, mAb captured by anti-human Fc, 25 C.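 Further: allergen analyte binding to captured, purified anti-Bet v 1 monoclonal antibodies, SPR in HEPES-buffered saline running buffer with EDTA and Tween-20 at pH 7.4.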 On the technique in general: In SPR one partner is held on a chip, and binding of the other changes the refractive index at the surface.

Assay [2] deals with T2, natural Bet v 1 (Betula verrucosa (Betula pendula), UniProt P15494 2-160).
T2 construct: Bought natural protein; also called nBet v 1
T2 chain: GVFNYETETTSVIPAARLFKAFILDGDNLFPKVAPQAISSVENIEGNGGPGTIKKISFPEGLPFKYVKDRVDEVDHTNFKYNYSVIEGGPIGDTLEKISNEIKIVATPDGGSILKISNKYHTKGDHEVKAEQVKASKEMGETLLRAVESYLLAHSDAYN
Nature of the assay: SPR Biacore 4000, mAb captured on anti-human Fc, 37C.

Assay [3] concerns the target T2, natural Bet v 1. The assay is described as follows: SPR Biacore 4000, mAb captured on anti-human Fc, 37C; 37 C.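 Further: kinetic rate constants from SPR sensorgrams fitted to a 1:1 model with mass transport limitation, HBS-ET buffer pH 7.4, KD and t½ derived from the rate constants.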
The target of assay [4] is T2, natural Bet v 1. The assay is described as follows: SPR Biacore 4000, mAb captured on anti-human Fc, 25C.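 Further: purified anti-Bet v 1 mAbs probed with natural Bet v 1 in HBS-ET buffer (HEPES, NaCl, EDTA, Tween-20) at pH 7.4.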

A word on the t½: it is how long it takes for the measured level to halve. As usually defined, the Kd is the constant that tells how readily two partners part at equilibrium. A low value points to tighter binding. The koff is a measure of how fast the partners let go of each other. Read a high koff as fast dissociation. What is called kon is the second-order rate constant of association. Low values mean slow association, high ones fast association.

B1: H4H16991P (antibody, human IgG4, V domains shown)
VH: QVQLVQSGAEVRKPGASVKVSCKASGYTFTGYYLHWVRQAPGQGLEWMGLINPNTGGTNFAQKFQGRVTMTRDSSISAAYMELSRLRSDDTAVYYCARQHWNRYFDNWGQGTLVTVSS
VL: DIQMTQSPSTLSASVGDRVTITCRASQSVGNWLAWYQQKPGKAPKLLIQEASSIESGVPSRFSGSGSGTEFTLIVSSLQPDDFATYYCQQYNSYSWTFGHGTKVEIK
notes: Fully human antibody with human IgG4 Fc (H4H prefix)
For B1, in assay [1], the “100 nM Analyte Bound (RU)” value amounted to 0 RU and the binding result is recorded as “no binding (tested: 100 nM)”.

B2: H4H17028P (antibody, human IgG4, V domains shown)
VH: QVQLVESGGGVVQPGRSLRLSCAASGFTFSRYAIHWVRQAPGKGLEWVAVISYDGDDKYYGDSVKGRFTISRDNSKTMVYLHMNSLRTEDTAVYYCAKDGYSLYGKDYFDYWGQGTLVTVSS
VL: EIVLTQSPGTLPLSPGERATLSCRASQSITNSYLAWYQQKPDQAPRLLIYGASSRATGIPDRFSGSESGTDFTLTISRLEPEDFAVYYCQQYVRSPWTFGQGTKVEIK
notes: as for B1
B2: in assay [1], the “100 nM Analyte Bound (RU)” value came out at 0 RU and the binding result is reported as “no binding (tested: 100 nM)”.

B3: H4H16992P (antibody, human IgG4 S228P, kappa, V domains shown)
VH: QVQLQESGPGLVKPSETLSLTCSVSGGSITNYFWTWIRQSPGKGLEWIGYIYYSGGTNYNPSLKSRVTISIDTSKNQFSLNMNSVTAADTAVYYCAGSYYYGVDVWGQGTTVTVSS
VL: EIVLTQSPATLSLSPGERATLSCRASQSIKSFLAWYRQKPGQAPRLLIYDASNRPTGIPARFSGSGSGTDFTLTINSLESEDFAVYFCQQRNNWPFTFGPGTKVDIKR
notes: human IgG4 Fc; also called REGN5713; MAB1
With B3, in assay [1], the “100 nM Analyte Bound (RU)” value is 0 RU and the binding result is on record as “no binding (tested: 100 nM)”.

B4: H4H17027P (antibody, human IgG4, V domains shown)
VH: EVQLVESGGGLVQPGGSLRLSCAASGFTFRNYAMHWVRQAPGEGLEWVAAIYRNSDSIDYADSVKGRFTISRDNAKNSLYLQMNSLKTEDTALYYCAKDEGFLEYFDSWGQGTLVTVSS
VL: EIVLTQSPGTLSLSPGERASLSCRASQSVSSSFLAWYQQKPGQAPRLLIYGVSSRFIGIPDRFSGGGSGTDFTLTITRLEPEDFAVYYCQQYGRSPWTFGQGTKVEIK
notes: as for B1
Regarding B4, in assay [1], the “100 nM Analyte Bound (RU)” value was 0 RU and the binding result was “no binding (tested: 100 nM)”.

B5: H4H17038P2 (antibody, human IgG4 S228P, kappa, V domains shown)
VH: EVQLVESGGDLVQPGGSLRLSCAASGFTFSSYEMNWVRQAPGKGLEWVSFISDSSSNIYYADSVKGRFTISRDNAKKSLYLQMTSLRAEDTAVYYCAREAIGSTSFDNWGQGTLVTVSS
VL: EIVMTQSPATLSVSPGERATLSCRASQSVSSSLAWYQQKPGQAPRRLIYSASTRATGIPARFSGSGSGTEFTLTISSLQSEDFAIYYCHQYNNWPLTFGGGTKVEIKR
notes: human IgG4 Fc; also called REGN5714; MAB3
B5: in assay [1], the “100 nM Analyte Bound (RU)” value was 0 RU and the binding result is “no binding (tested: 100 nM)”.

B6: H4H17015P (antibody, human IgG4, V domains shown)
VH: QVQLQESGPGLVKPSQTLSLTCTVSGGSISSADHYWSWIRQQPGKGLEWIGYISYRGTTYYNPTLESRVSISVDTFKNQFSLMLHSVTVADTAVYYCAKVLQGLVRFRDYGFDVWGQGTTVTVSS
VL: DIQLTQSPPFLSASVGDRVTITCWASQDISSYLAWYQQNPGKSPKLLIYDAFTLHTGVPSRFSGSGSGTEFTLTISSLQPEDFATFYCQHLYSFPFTFGPGTKVDIK
notes: as for B1
In the case of B6, in assay [1], the “100 nM Analyte Bound (RU)” value was 1 RU and the binding result is reported as “no binding (tested: 100 nM)”.

B7: H4H17001P (antibody, human IgG4, V domains shown)
VH: QVQLVESGGGLVKPGGSLRLSCAASGFTFSDYYMNWIRQAPGKGLEWISLISSSGSAIYYSDSVKGRFTISRDNARKSLYLQVNSLRAEDTAVYYCARDRGEWALGAYYYGLDVWGQGTTVTVSS
VL: DIVMTQSPLSLPVTPGEPASISCRSSQSLLHSDGYNYLDWYLQKSGQSPQLLIYLGSNRASGVPDRFSGSGSGTDFTLKISRMEAEDVGVYYCMQALQTPYTFGQGTKLEIK
notes: as for B1
Take B7: in assay [1], the “100 nM Analyte Bound (RU)” value came out at 0 RU and the binding result is reported as “no binding (tested: 100 nM)”.

B8: H4H17045P2 (antibody, human IgG4, V domains shown)
VH: EVQLVESGGGLVQPGVSLRLSCVASGFTFSNYDITWIRQIPGKGLEWVSRISGSGGSTYFADSVKGRFIISRDNSKNTVYMQMNSLRAEDSAVYYCARRDSVLFSMNSWLDPWGQGTLVTVSS
VL: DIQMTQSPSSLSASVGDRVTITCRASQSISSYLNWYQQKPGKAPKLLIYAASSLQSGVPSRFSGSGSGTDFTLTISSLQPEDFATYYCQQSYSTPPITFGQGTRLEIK
notes: as for B1
Consider B8, for which, in assay [1], the “100 nM Analyte Bound (RU)” value stood at 0 RU and the binding result is “no binding (tested: 100 nM)”.

B9: H4H17033P (antibody, human IgG4, V domains shown)
VH: QVQLVQSGAEVKKPGASVKVSCKASGYTFAAHYMHWVRQAPGQGLEWMGWINTYTGGTNYGQKFQGRVTMTRDTSITTAYMELSRLRSDDTAVYYCARDRRNWNFVFEYWGQGTLVTVSS
VL: DIQMTQSPSSLSASVGDRVTISCRASQNIKNYLNWYQQKPGKAPKLLIYEASNLQSGAPSRFSGSGSGTDFTLTISSLEPEDFATYYCQQSFSIPWTFGQGTKVEIK
notes: as for B1
Regarding B9, in assay [1], the “100 nM Analyte Bound (RU)” value came to 0 RU and the binding result is recorded as “no binding (tested: 100 nM)”.

B10: H4H17067P2 (antibody, human IgG4, V domains shown)
VH: EVQLVQSGAEVKKPGESLKISCSGSGYRFTNYWIAWVRQMPGKGLEWMGLIHPDDSDIRYSPSFQGQVTFSVDKSINTAYLQWSSLKASDTAMYYCTRQDGILWSHNAWFDPWGQGTLVTVSS
VL: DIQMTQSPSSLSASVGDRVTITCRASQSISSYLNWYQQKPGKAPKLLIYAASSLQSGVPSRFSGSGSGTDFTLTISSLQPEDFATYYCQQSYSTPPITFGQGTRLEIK
notes: as for B1
With B10, the “100 nM Analyte Bound (RU)” value in assay [1] is -1 RU.

B11: H4H17082P2 (antibody, human IgG4 S228P, kappa, V domains shown)
VH: QVQLVQSGAEVKKPGASVKVSCKASGYTFISYNIFWVRQATGQGLDWMGWMNPFRNNAGYAQKFQGRVTVTWDTSISTAYMELSSLSSEDTAIYYCAREHGSSWGFFDYWGQGTLVTVSS
VL: not shown
notes: human IgG4 Fc; also called REGN5715; MAB2
As for B11, the “100 nM Analyte Bound (RU)” value in assay [1] was found to be 20 RU.

B12: H4H17031P (antibody, human IgG4, V domains shown)
VH: QVQLQQWGAGLLKPSETLSLTCVVYGESFGNYHWNWIRQSPGKRLEWIGEINQNGHTNYNPSLKSRVTISVDTSKIQFSLRLNSVTAADTAVYFCARGHNYVNSYFGLDVWGQGTTVTVSS
VL: EIVMTQSPATLSVSPGERATLSCRTSQSVSISLAWYQRKPGQAPRLLIFGSSTRATGVPARFSGSGSGTEFTLTISSLQSEDFAVYYCQQYNNWPYTFGQGTKLEIK
Consider B12, for which, in the assay with natural Bet v 1 [2], the “100 nM natural Bet v 1 Bound (RU)” value worked out at 63 RU and the t½ is 2.1 min. In the assay with natural Bet v 1 [3], binding was characterised by a dissociation constant (Kd) of 27.9 nM, the koff was 0.00544 s⁻¹ and the kon was ~195000 M⁻¹ s⁻¹. In the assay with natural Bet v 1 [4], the “100 nM natural Bet v 1 Bound (RU)” value turned out to be 54 RU, binding was put at a Kd of 13.5 nM, the koff amounted to 0.00168 s⁻¹ and the kon is 124000 M⁻¹ s⁻¹. For the same molecule, the t½ with natural Bet v 1 [4] stood at 6.8 min.

B13: H4H17031P (antibody, human IgG4, V domains shown)
VH: QVQLQQWGAGLLKPSETLSLTCVVYGESFGNYHWNWIRQSPGKRLEWIGEINQNGHTNYNPSLKSRVTISVDTSKIQFSLRLNSVTAADTAVYFCARGHNYVNSYFGLDVWGQGTTVTVSS
VL: EIVMTQSPATLSVSPGERATLSCRTSQSVSISLAWYQRKPGQAPRLLIFGSSTRATGVPARFSGSGSGTEFTLTISSLQSEDFAVYYCQQYNNWPYTFGQGTKLEIK
notes: as for B1
On to B13, for which, in assay [1], the “100 nM Analyte Bound (RU)” value was 0 RU and the binding result is “no binding (tested: 100 nM)”.

B14: H4H16987P (antibody, human IgG4 S228P, kappa, V domains shown)
VH: EVQLVESGGGLVQPGGSLRLSCAASGFTVSSNSMSWVRQAPGEGLEWVSVIFSGGITYYSDSVKGRFTISRHNSKNTLYLQMNSLRTEDTAVYYCARHSNWNFDAFDIWGQGTMVTVSS
VL: DIQMTQSPSSLSASVGDRVTITCRASQSFDTYLNWYQQKPGKAPNLLIYATSSLQSGVPSRFSGSGSGTDFTLTISSLQPEDFGTYYCQQSYSIPYTFGQGTKLEIKR
notes: human IgG4 Fc; also called MAB4
As for B14, in assay [1], the “100 nM Analyte Bound (RU)” value was 0 RU and the binding result is on record as “no binding (tested: 100 nM)”.
